For 3 sequences, binding results are on record in paper PMC4310594.

The series addresses T1, RamA (Klebsiella pneumoniae (Ecl8?)) (UniProt Q48413).
T1 sequence: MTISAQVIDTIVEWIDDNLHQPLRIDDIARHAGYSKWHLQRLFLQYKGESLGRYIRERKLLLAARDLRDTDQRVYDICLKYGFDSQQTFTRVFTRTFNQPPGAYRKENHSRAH
The series is described as follows: EMSA. For orientation: Mobility shift assays separate free from complexed probe on a gel.

Turning to “GCACTTCAACTAAATTCGCCTGAGTTTGGCTCATAAAATCATCCTTACTAAACACCTGACGGGCAAGCATGGCCCTTTCTTGCGCCACAATCACAACATTTTTACAGAATCTTACCTGCACAGGTTAGCGAAAGCTGGCATTTGTTTTACTTTTGGCACACATAAAGTCAAAATTAAGAATTCGTTACGCTGCGTAGGGATAACCCAGCGAGGCGACGATTATACCTGAAG (double strand) [yrbF promoter]”, the binding entry is “binds”. For the sequence “GCCTGCATAATCGTTTCCTGACAAAAAAGGGTATTGTGACCGATAGTCGCCCACTTGCAAAACCTCTCTGCGCGGTTGGTCATTACCCACCGCACAAATGGGACGTGTTTTTTCGGCTGAAATCGTTACAATCAGGAAATCATACTATCTGGAGTGAACCATGTTAGAGCTTTTGAAAAGTCTGGTTTTTGCGGTCATCATGGTACCGGTGGTGATGGCGGTCATCCTGGGACTGATTTACGGTCTTGGCGAAGTGTTCAAC (double strand) [ybhT promoter]”, the binding result is on record as “binds”.

As to “GGAAACGATTGCCAGGACTGGTGCTTCAGGCCTGATAAACCGCTCACTTTGTTAACAACAGTGCTCAGATTTTAATGCATTATTAAAGATGCAGCTTTTCTGGCTGGCGCGTCCAGGATGCGCCAGGCTGGAAGAAGACCTTCAATCTGATGACGATGCTGTAGCAAAGTGAGCCTTTATGACTGACAAATCTGTTCCATTCTCGGTGCTCGATCTGGCGCCGATCCCGCAAGGATCTTCTGCCAAAGAAGCCTTTACCCA (double strand) [yhbW promoter]”, the binding entry is “binds”.
